The results in this text go back to PMC10936776, “Structural and functional characterization of AfsR, an SARP family transcriptional activator of antibiotic biosynthesis in Streptomyces” (PLOS Biology, 2024).

The target in series [1] is T1, AfsR (dephosphorylated AfsR) (Streptomyces coelicolor, UniProt P25941).
T1 construct: full-length, 993 residues, pET28a (His-tagged), E. coli BL21(DE3), Ni-NTA and SEC; wild type treated with lambda phosphatase (E. coli protein carries pT337); mainly monomer
Put plainly: in vitro MangoIII transcription assay after preincubation. The series is classed as biochemical. Conditions: 500 nM dephosphorylated AfsR, 1 mM GTP preincubation 10 min 30 °C, RNAP-σHrdB, RbpA, CarD; activator.

Substrate in series [2]: Nc1ncnc2c1ncn2[C@@H]1O[C@H](COP(=O)(O)OP(=O)(O)OP(=O)(O)O)[C@@H](O)[C@H]1O
The series can be described thus: Malachite green phosphate ATPase assay. The series is classed as biochemical, Streptomyces coelicolor. To be noted: 5 μM protein, 20 mM Tris-HCl pH 7.5, 150 mM NaCl, 5 mM MgCl2, 30 min.

A further series addresses T2, AfsR T337A mutant (S. coelicolor, UniProt P25941 1-993, T337A).
T2 construct: AfsR, S. coelicolor, full-length protein with T337A; Preincubated with afsS promoter DNA and 1 mM ATPγS for AfsR-TIC; Vector and host of the mutant are surmised from the wild type
T2 sequence (looked up): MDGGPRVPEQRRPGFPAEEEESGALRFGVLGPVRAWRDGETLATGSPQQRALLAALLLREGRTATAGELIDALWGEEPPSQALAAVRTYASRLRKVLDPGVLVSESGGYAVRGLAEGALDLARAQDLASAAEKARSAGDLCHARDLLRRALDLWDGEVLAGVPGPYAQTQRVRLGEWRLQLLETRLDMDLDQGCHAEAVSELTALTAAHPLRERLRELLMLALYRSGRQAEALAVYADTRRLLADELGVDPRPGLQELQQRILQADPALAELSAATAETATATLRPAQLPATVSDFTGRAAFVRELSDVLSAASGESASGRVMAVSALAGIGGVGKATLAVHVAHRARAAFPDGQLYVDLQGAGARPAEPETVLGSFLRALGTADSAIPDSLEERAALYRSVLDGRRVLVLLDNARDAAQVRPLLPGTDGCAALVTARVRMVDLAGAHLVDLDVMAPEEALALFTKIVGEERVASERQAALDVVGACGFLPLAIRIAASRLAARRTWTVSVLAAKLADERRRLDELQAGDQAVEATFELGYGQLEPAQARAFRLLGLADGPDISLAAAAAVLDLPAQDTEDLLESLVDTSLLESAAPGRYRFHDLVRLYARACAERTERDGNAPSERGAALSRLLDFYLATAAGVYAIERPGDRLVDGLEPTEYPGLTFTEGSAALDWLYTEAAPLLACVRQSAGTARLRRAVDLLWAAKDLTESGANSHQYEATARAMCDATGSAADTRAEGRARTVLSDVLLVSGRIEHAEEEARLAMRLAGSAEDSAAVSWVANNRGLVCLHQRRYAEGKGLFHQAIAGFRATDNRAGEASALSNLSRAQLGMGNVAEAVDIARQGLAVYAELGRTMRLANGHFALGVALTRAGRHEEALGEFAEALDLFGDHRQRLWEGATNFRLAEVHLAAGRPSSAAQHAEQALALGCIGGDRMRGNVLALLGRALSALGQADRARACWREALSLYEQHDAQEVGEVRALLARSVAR
Put plainly: cryo-EM structure; AfsR_(T337A)-TIC: 32 uM AfsR_(T337A) preincubated with 5 uM afsS promoter DNA and 1 mM ATPγS, mixed with RNAP core, σ^HrdB, CarD, RbpA; assembling buffer; Superose 6; nominal resolution 3.63 Å, SARP region 5.10 Å. Conditions: both partners purified.

As to `Nc1nc2c(ncn2[C@@H]2O[C@H](COP(=O)(O)OP(=O)(O)OP(=O)(O)O)[C@@H](O)[C@H]2O)c(=O)[nH]1` [GTP], the transcription activation result in series [1] is listed as “preincubating dephosphorylated AfsR with ATP or GTP significantly enhances its transcription activation”.

B1: AfsR (dephosphorylated AfsR) (Streptomyces coelicolor A3(2)) (protein)
chain: MDGGPRVPEQRRPGFPAEEEESGALRFGVLGPVRAWRDGETLATGSPQQRALLAALLLREGRTATAGELIDALWGEEPPSQALAAVRTYASRLRKVLDPGVLVSESGGYAVRGLAEGALDLARAQDLASAAEKARSAGDLCHARDLLRRALDLWDGEVLAGVPGPYAQTQRVRLGEWRLQLLETRLDMDLDQGCHAEAVSELTALTAAHPLRERLRELLMLALYRSGRQAEALAVYADTRRLLADELGVDPRPGLQELQQRILQADPALAELSAATAETATATLRPAQLPATVSDFTGRAAFVRELSDVLSAASGESASGRVMAVSALAGIGGVGKTTLAVHVAHRARAAFPDGQLYVDLQGAGARPAEPETVLGSFLRALGTADSAIPDSLEERAALYRSVLDGRRVLVLLDNARDAAQVRPLLPGTDGCAALVTARVRMVDLAGAHLVDLDVMAPEEALALFTKIVGEERVASERQAALDVVGACGFLPLAIRIAASRLAARRTWTVSVLAAKLADERRRLDELQAGDQAVEATFELGYGQLEPAQARAFRLLGLADGPDISLAAAAAVLDLPAQDTEDLLESLVDTSLLESAAPGRYRFHDLVRLYARACAERTERDGNAPSERGAALSRLLDFYLATAAGVYAIERPGDRLVDGLEPTEYPGLTFTEGSAALDWLYTEAAPLLACVRQSAGTARLRRAVDLLWAAKDLTESGANSHQYEATARAMCDATGSAADTRAEGRARTVLSDVLLVSGRIEHAEEEARLAMRLAGSAEDSAAVSWVANNRGLVCLHQRRYAEGKGLFHQAIAGFRATDNRAGEASALSNLSRAQLGMGNVAEAVDIARQGLAVYAELGRTMRLANGHFALGVALTRAGRHEEALGEFAEALDLFGDHRQRLWEGATNFRLAEVHLAAGRPSSAAQHAEQALALGCIGGDRMRGNVLALLGRALSALGQADRARACWREALSLYEQHDAQEVGEVRALLARSVAR
notes: full-length, 993 residues, pET28a (His-tagged), E. coli BL21(DE3), Ni-NTA and SEC; wild type treated with lambda phosphatase (E. coli protein carries pT337); mainly monomer
The term Km denotes the concentration of substrate that gives half-maximal velocity. Usually kcat stands for the number of substrate molecules converted per active site and unit of time at saturation. With B1, in series [2] (dephosphorylated), the Michaelis-Menten constant (Km) came out at 1160 ± 231 µM and the kcat was 0.0453 ± 0.00356 s⁻¹.

B2: phosphorylated AfsR (phos-AfsR) (Streptomyces coelicolor A3(2)) (protein)
chain: MDGGPRVPEQRRPGFPAEEEESGALRFGVLGPVRAWRDGETLATGSPQQRALLAALLLREGRTATAGELIDALWGEEPPSQALAAVRTYASRLRKVLDPGVLVSESGGYAVRGLAEGALDLARAQDLASAAEKARSAGDLCHARDLLRRALDLWDGEVLAGVPGPYAQTQRVRLGEWRLQLLETRLDMDLDQGCHAEAVSELTALTAAHPLRERLRELLMLALYRSGRQAEALAVYADTRRLLADELGVDPRPGLQELQQRILQADPALAELSAATAETATATLRPAQLPATVSDFTGRAAFVRELSDVLSAASGESASGRVMAVSALAGIGGVGKTTLAVHVAHRARAAFPDGQLYVDLQGAGARPAEPETVLGSFLRALGTADSAIPDSLEERAALYRSVLDGRRVLVLLDNARDAAQVRPLLPGTDGCAALVTARVRMVDLAGAHLVDLDVMAPEEALALFTKIVGEERVASERQAALDVVGACGFLPLAIRIAASRLAARRTWTVSVLAAKLADERRRLDELQAGDQAVEATFELGYGQLEPAQARAFRLLGLADGPDISLAAAAAVLDLPAQDTEDLLESLVDTSLLESAAPGRYRFHDLVRLYARACAERTERDGNAPSERGAALSRLLDFYLATAAGVYAIERPGDRLVDGLEPTEYPGLTFTEGSAALDWLYTEAAPLLACVRQSAGTARLRRAVDLLWAAKDLTESGANSHQYEATARAMCDATGSAADTRAEGRARTVLSDVLLVSGRIEHAEEEARLAMRLAGSAEDSAAVSWVANNRGLVCLHQRRYAEGKGLFHQAIAGFRATDNRAGEASALSNLSRAQLGMGNVAEAVDIARQGLAVYAELGRTMRLANGHFALGVALTRAGRHEEALGEFAEALDLFGDHRQRLWEGATNFRLAEVHLAAGRPSSAAQHAEQALALGCIGGDRMRGNVLALLGRALSALGQADRARACWREALSLYEQHDAQEVGEVRALLARSVAR
notes: full-length, 993 residues, pET28a (His-tagged), E. coli BL21(DE3); dephosphorylated, then phosphorylated in vitro by AfsKΔC (pS22, pT337, pS391, pT506, pS953 by MS), SEC
For B2, in series [2] (phosphorylated by AfsKΔC), the Km amounted to 767 ± 163 µM and the kcat worked out at 0.070 ± 0.00515 s⁻¹.

B3: Streptomyces coelicolor RNA polymerase α subunit (natural protein, S. coelicolor)
chain: MLIAQRPSLTEEVVDEFRSRFVIEPLEPGFGYTLGNSLRRTLLSSIPGAAVTSIRIDGVLHEFTTVPGVKEDVTDLILNIKQLVVSSEHDEPVVMYLRKQGPGLVTAADIAPPAGVEVHNPDLVLATLNGKGKLEMELTVERGRGYVSAVQNKQVGQEIGRIPVDSIYSPVLKVTYKVEATRVEQRTDFDKLIVDVETKQAMRPRDAMASAGKTLVELFGLARELNIDAEGIDMGPSPTDAALAADLALPIEELELTVRSYNCLKREGIHSVGELVARSEADLLDIRNFGAKSIDEVKAKLAGMGLALKDSPPGFDPTAAADAFGADDDADAGFVETEQY
notes: RNA polymerase subunit alpha, S. coelicolor; Stood in the assay as a subunit of the RNAP core in the holoenzyme; density for one αCTD is seen; also called αCTD (C-terminal domain of the α subunit); source: S. coelicolor RNAP purified as described previously [37]
For B3, the binding result with AfsR T337A mutant is “binds”.

B4: Streptomyces coelicolor RNA polymerase sigma factor σ^HrdB (natural protein, S. coelicolor)
chain: MSASTSRTLPPEIAESVSVMALIERGKAEGQIAGDDVRRAFEADQIPATQWKNVLRSLNQILEEEGVTLMVSAAEPKRTRKSVAAKSPAKRTATKAVAAKPVTSRKATAPAAPAAPATEPAAVEEEAPAKKAAAKKTTAKKATAKKTTAKKAAAKKTTAKKEDGELLEDEATEEPKAATEEPEGTENAGFVLSDEDEDDAPAQQVAAAGATADPVKDYLKQIGKVPLLNAEQEVELAKRIEAGLFAEDKLANSDKLAPKLKRELEIIAEDGRRAKNHLLEANLRLVVSLAKRYTGRGMLFLDLIQEGNLGLIRAVEKFDYTKGYKFSTYATWWIRQAITRAMADQARTIRIPVHMVEVINKLARVQRQMLQDLGREPTPEELAKELDMTPEKVIEVQKYGREPISLHTPLGEDGDSEFGDLIEDSEAVVPADAVSFTLLQEQLHSVLDTLSEREAGVVSMRFGLTDGQPKTLDEIGKVYGVTRERIRQIESKTMSKLRHPSRSQVLRDYLD
notes: principal sigma factor HrdB, S. coelicolor; region 1.1 disordered in the map; Stood in the assay as part of the RNAP σ^HrdB-holoenzyme; also called σ subunit; σ R4 (region 4); source: purified as described previously [37]
In the case of B4, the binding result in the series with AfsR T337A mutant was “binds”.
